Test system: T1, peptide substrate SEQ ID NO: 1 Lys-Lys-Gly-Phe-Pro-Arg-Gly-Gly-Asp-Cys
T1 sequence: KKGFPRGGDC

trypsin
limit of detection of trypsin (750 nM peptide, 60 min pre-exposure, 20 nm gold nanoparticles): the limit of detection of the colloidal gold nanoparticle-based colorimetric assay developed in the present invention for sensing trypsin is about 20 pM of trypsin
limit of detection of trypsin (750 nM peptide, 3 hours pre-exposure, 20 nm gold nanoparticles): from 20 pM to approximately 2 to 10 pM
limit of detection of trypsin (750 nM peptide, 3 hours pre-exposure, 30 nm gold nanoparticles): further improved from about 2 to 10 pM to a range of from 500 fM to 2 pM
ratio of the absorbance at 650 nm/absorbance at 520 nm (750 nM peptide, 60 min pre-exposure, trypsin up to 2 nM): As the amount of trypsin is increased the absorbance band shifts toward what the gold nanoparticles show in the absence of any peptide and the ratio approaches a value of about 0.05
time for complete hydrolytic cleavage (gold nanoparticle aggregation, ratio of absorbance at 650 nm to 520 nm; 1000 nM peptide, 200 pM trypsin, 20 C): it took more than 60 min for complete hydrolytic cleavage of a solution of 1000 nM of the peptide substrate SEQ ID NO: 1 Lys-Lys-Gly-Phe-Pro-Arg-Gly-Gly-Asp-Cys by trypsin at a concentration of 200 pM

Reference: patent US20170226560
